Source: publication PMC3169474

System: TBP2
Test: pull-down
Details: negative control, biotin-dUTP/dATP fill-in, 20 mM Tris pH 8.0, 1 mM EDTA, 5 mM DTT, 5 mM MgCl2, 100 mM KCl, 0.125% NP40, protease inhibitors, overnight at 4 C, washes 100-200 mM KCl (up to 400 mM tested)

Sequence | binding signal (very low affinity, 5-methylcytosine at CpG (SssI), both strands) [% recovered] | binding signal (residual affinity) [% recovered]
GATCCCGGAGTTAA / GATCTTAACTCCGG [methylated concatamerized GATC-CCGG-AGTTAA probe (SssI+)] | < 1 | –
GATCCCGGAGTTAA / GATCTTAACTCCGG [unmethylated concatamerized GATC-CCGG-AGTTAA probe (SssI-)] | – | 4
